T1: Myomaker (Mus musculus, UniProt Q9D1N4)
T1 construct: endogenous in cells; host or cells: Differentiating muscle cells
T1 sequence (Q9D1N4 1-221): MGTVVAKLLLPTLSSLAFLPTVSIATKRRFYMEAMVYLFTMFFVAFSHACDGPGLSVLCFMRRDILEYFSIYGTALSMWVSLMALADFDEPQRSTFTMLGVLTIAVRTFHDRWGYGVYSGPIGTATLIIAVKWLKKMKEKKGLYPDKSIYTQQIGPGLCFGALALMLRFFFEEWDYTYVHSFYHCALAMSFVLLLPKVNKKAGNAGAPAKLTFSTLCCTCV

B1: mouse MINION: 84 aa mouse microprotein inducer of fusion, expressed from retroviral cDNA, untagged or C-terminally 3×FLAG-1×HA-tagged (protein, listed as Mus musculus)
chain: MPVPLLPMVLRSLLSRLLLPVARLARQHLLPLLRRLARRLSSQDMREALLSCLLFVLSQQQPPDSGEASRVDHSQRKERLGPQK
B2: Myomaker: muscle-specific transmembrane protein; mouse tmem8c CDS expressed from retroviral vector (protein)
chain: T1 sequence (Q9D1N4 1-221)
B3: human Minion: human ortholog of MINION, 84 codon ORF, expressed from retroviral cDNA, untagged or C-terminally epitope-tagged (protein, listed as Homo sapiens)
chain: MPTPLLPLLLRLLLSRLLLPAARLARQYLLPLLRRLARRLGSQDMREALLGCLLFILSQRHSPDAGEASRVDRLERRERLGPQK

Key:
MINION^KD C2C12 cells = test: In vitro reconstitution (complementation) assay of the fusion defect in MINION^KD C2C12 cells; assay type: cell-based, mouse; conditions: retroviral cDNA expression, 5 days in differentiation medium, MHC immunofluorescence, MINION tested tagged and untagged
Method: For primary myoblasts derived from both embryos and adult mice, around 3000 cells in 50 μl myoblast growth medium (1:1 mixture of DMEM low glucose and Ham's F-10 Nutrient Mix; 20% (v/v) FBS; freshly added 2.5 ng/ml rhFGF) were seeded into each well of a 384-well Collagen-coated PerkinElmer CellCarrier™ plate (6007550) for imaging purposes. The next day, differentiation medium (DMEM high glucose (Gibco® 11995073) with 3% to 5% horse serum) was added to the cells (DM day 0). Differentiation medium was replaced daily. The cells were fixed at DM day 3 and day 4 for immunofluorescence staining. For C2C12 cells, ˜1500-2000 cells were seeded into each well of a 384-well plate (DMEM high glucose with 10% FBS) and around 2×10^5 cells were seeded into each well of a 6-well plate, using C2C12 growth medium (DMEM high glucose with 10% FBS). On the next day, differentiation medium (DMEM high glucose with 2% horse serum) was added to the cells (DM day 0), and differentiation medium was likewise replaced daily. […]
For the cloning of cDNA constructs, the coding sequences (CDS) of mouse MINION (for the 84 aa isoform), human MINION ortholog, mouse tmem8c (myomaker), nanoluc (control A), luciferase (control B), mouse MINION with 1 bp insertion, human MINION with 1 bp deletion, and mouse MINION truncation (39 aa form) were synthesized (IDT) with attB sites at both ends and a consensus Kozak sequence (5′ GCCACC (SEQ ID NO: 94)) before the start codon. […] After expression testing of the two 3F1H-tagged mouse and human MINION constructs, it was noticed that two bands were detected by Western blot with anti-FLAG antibody (FIG. 16). […]
To examine the knockdown efficiency of the mouse MINION transcript, shRNA-encoding lentiviruses were used to infect C2C12 cells. […] Based on an estimated viral titer of 1×10^8 vp/ml (as measured on 293T cells), a virus amount equivalent to MOI30 on 293T cells was used on C2C12 cells. […] Infection efficiency of 70-85% was routinely achieved as judged by FACS analysis, though GFP signal in undifferentiated C2C12 cells was barely discernable by EVOS fluorescence microscopy. […]

Myomaker = biological target: T1, Myomaker; test: Co-immunoprecipitation of Minion with Myomaker in differentiating muscle cells; assay type: binding; conditions: tagged and untagged Minion, endogenous and overexpressed Myomaker
10T1/2 fibroblasts = test: Heterologous co-expression, syncytia formation between fibroblasts; assay type: cell-based; conditions: retroviral expression in 10T1/2 fibroblasts, growth medium
Method: In order to infect C2C12 cells and 10T1/2 cells, neat virus was incubated with 8 μg/ml polybrene at 37° C. for 10 min and then added to the cells, which were then incubated for 15 min at 37° C. One round of spin infection was performed using 24-well or 12-well plates at 1100 g for 1-1.5 hours and 32° C. After 4-6 hours, fresh neat virus with polybrene was added and a second round of spin infection was performed. Fresh medium was added to the infected cells to dilute the polybrene. […] Infection efficiency of this two-round infection method was generally >95% over a large range of viral concentrations, therefore FACS was not generally necessary. This strong GFP signal was used to mark the boundary of cells, in addition to phase contrast imaging and nuclear markers (FIGS. 22, 23A-23F); moreover, in cells that were fixed with 4% PFA but not permeabilized with detergents, the GFP signal was higher in the nuclear region, allowing unambiguous delineation of both the cell boundary and nuclei. […]
(§1) Cell labeling was performed according to manufacturer's instructions with slight modifications. […] After the last wash, the cells were counted and diluted to the concentration needed for the final mixing experiment in a 384-well or 24-well plate, and were incubated at 37° C. for 30 min. […]

C2C12 myoblasts = test: Cell mixing of 10T1/2 fibroblasts with differentiating C2C12 myoblasts; assay type: cell-based, mouse; conditions: 10T1/2 fibroblasts mixed with wild-type C2C12 myoblasts (1:2), 3 days in differentiation medium
Source text: Differentiating myoblasts and myotubes are marked by MHC. 10T1/2 fibroblasts were infected with retrovirus expressing GFP and proteins of interest (left, NanoLuc control; middle, mouse Myomaker; right, mouse Minion). DAPI marks nuclei. […] White arrows indicate MHC-positive myotubes that are not fused to fibroblasts. n=2 (eight technical replicates each). 0.7 mm×0.7 mm fields are shown. […] 0.7 mm×0.7 mm fields at ×20 magnification are shown. Control and Minion^KD myoblasts were used. Differentiating myoblasts and myotubes are marked by MHC. 10T1/2 fibroblasts expressing Myomaker were labelled with CellTrace Violet dye before mixing. […]
as §1
C3H 10T1/2 fibroblasts were infected with retroviruses encoding GFP and either control, Myomaker or Minion; GFP-positive fibroblasts were then mixed with wild-type C2C12 myoblasts and kept in differentiation medium for 3-4 days. Differentiating myoblasts and myotubes were marked by MHC expression, and fusion of GFP-positive fibroblasts to myotubes was readily detected when Myomaker, but not Minion or control, was expressed (FIG. 28A).

Molecule | rescue of the cell fusion defect (MINION^KD C2C12 cells) | physical interaction with Myomaker (co-immunoprecipitation, western blot) (Myomaker) | cell fusion between fibroblasts (multinuclear syncytia) (10T1/2 fibroblasts) | fusion of fibroblasts expressing the protein to wild-type differentiating myoblasts and myotubes (C2C12 myoblasts)
B1 | robustly rescued fusion | no detectable physical interaction | neither Myomaker nor Minion alone (FIG. 21D) was sufficient | failed to do so
B2 | incapable of rescuing the fusion defect | – | neither Myomaker nor Minion alone (FIG. 21D) was sufficient | fused with wild-type differentiating myoblasts and myotubes
B3 | strongly reconstituted cell fusion | – | – | –
